The values below are quoted from earlier work in doi:10.1101/2024.09.16.613101.

In general, pKa refers to the pH at which an ionisable group is half protonated.

One data set deals with His57 (UniProt position 57, VVTAAHCGVTT). The settings on record: not stated (the structure used for prediction is described as the apoenzyme).
The target of another data set is Cys46 (UniProt position 47, DFTFVCPTELG).
The target of the next data set is Glu28 (UniProt position 54, GYQLHEDGETV). Kind of data set: NMR. As to conditions: native (folded) state, according to the title of ref 70; ligand state not stated.
The next data set deals with Glu58 (UniProt position 84, SSPYYEWPILS). The data set is described as follows: NMR. The settings on record: native (folded) state, according to the title of ref 70; ligand state not stated.
Another data set has as its target His27 (UniProt position 53, AGYQLHEDGET). The data set is described as follows: NMR. As to conditions: native (folded) state, according to the title of ref 70; ligand state not stated.
The target in another data set is His40 (UniProt position 66, SNSYPHKYNNY). Kind of data set: NMR. As to conditions: native (folded) state, according to the title of ref 70; ligand state not stated.
A further data set concerns the target His92 (UniProt position 118, AGVITHTGASG). The data set is described as follows: NMR. The settings on record: native (folded) state, according to the title of ref 70; ligand state not stated.

Consider chymotrypsin, for which the pKa in the data set with His57 was 7.5.

In the case of “peroxiredoxin AhpC (alkyl hydroperoxide reductase subunit C) (bacterial (species not stated in the article))”, the pKa with Cys46 was 5.94.

For “ribonuclease T1 (Aspergillus oryzae (not stated in the article; inferred))”, the pKa with Glu28 was 5.61; in the data set with Glu58, 3.96; with His27, 7.57; with His40, 7.44; with His92, 7.31.
